Results on 9 molecules are retold here after publication PMC10942606 (eLife, 2023).

Where two headings read alike, the source gives them in different places.

B1: Pcf1 (large subunit of SpCAF-1) (natural protein, S. pombe, UniProt Q1MTN9 1-544, looked up)
chain: MNSESVDSDVAASTSNKGNELCSSSTDITSLSVSSPNESVIHSSHSASEADEYVCKLSYEGNRKKRIYNGSAEAGKEKKLQKQRAQEERIRQKEAERLKREKERQQREQEKKLREQEKIAAKKMKELEKLEKERIRLQEQQRRKEERDQKLREKEEAQRLRQEQILNKERQQLKLNNFFTKGVEKRIAPNENFVADKTDELNEFEKEFRPFFIKHQMSLSKYPSPNESDSFLDEVLSTSKSYPLKLNDIFTPSDAVSSANSLGVSNRNSENEVRQLMSAYQDPSVSKPQEILSCLSQIPIKFIFFYQDVRPPYFGSYTKTHSHGSNVLLNPWLEDEDIDYTYDSEAEWVADEEDDGEDLESEDEEVDNSDDIVEDGDNAFVDDEDDDKDSVNASNTHRSSGPLEVIVEGPVWDSKFLPDFNCLSLIEPISSFSASTYLQIDPKEDLWASQDTAPASSGMTIGPTSSLSDDLQVRFPSEDIPKFIEYVRNSHDNKVFLIENLRHMFPYVTKNIISETLGKVAVRKGKSVSDGWIIKENFASLLSS
B7: SpPCNA (recombinant S. pombe PCNA) (natural protein, UniProt Q03392 1-260, looked up)
chain: MLEARFQQAALLKKLLDAIKELVTDANFDCNDNGISLQAMDSSHVALVSMLIKSDGFEPYRCDRNIALGINLNALSKVLRCAQNEDLVTLKAEDTPEVLNLVFESEKNDRISDYDVKLMDIDQEHLGIPDIEYDATITMPAAEFQRITRDLLTLSDSVTINASKEGVRFSCKGDIGNGSTTLKQHTDLSDQDQSIEISLTQAVTLTFSLKYLAQFTKATPLATRVTLSMSNDVPLLVEYKMESGFLRFYLAPKIGEEDEE

Data set [1] concerns the molecule itself. In words: SEC.
The target of data set [2] is T1, S. pombe histones H3−H4 (S. pombe, UniProt P09988 1-136; P09322 1-103). In words: NMR titration.
The target of data set [3] is B7. Description: ITC. Background: ITC needs no label: the signal is the heat of the interaction.
Data set [4] addresses B1. In words: SEC-SAXS. A general note: Size exclusion chromatography separates by hydrodynamic size, large species first.
Data set [5] concerns the target T1, S. pombe histones H3−H4. In words: NMR titration. This is another data set of the same source.
The target of data set [6] is SpCAF-1 complex (Pcf1-Pcf2-Pcf3), wild type, full length (S. pombe, UniProt Q1MTN9 1-544; O13985 1-512; Q9Y825 1-408). In words: native gel or EMSA. A general note: Mobility shift assays separate free from complexed probe on a gel.
The target in data set [7] is FLAG-Pcf1-ED* (expressed from the endogenous pcf1 gene) (S. pombe, UniProt Q1MTN9 1-544, Y340A | W348A). Description: co-IP.

Turning to B1, the binding result in data set [1] and in data set [2] was “binds” in each case.

B2: SpCAF-1-KER* complex (Pcf1 R147E-K150E-K154E-R161E-K168E, Pcf2, Pcf3) (complex, S. pombe)
chain 1: MNSESVDSDVAASTSNKGNELCSSSTDITSLSVSSPNESVIHSSHSASEADEYVCKLSYEGNRKKRIYNGSAEAGKEKKLQKQRAQEERIRQKEAERLKREKERQQREQEKKLREQEKIAAKKMKELEKLEKERIRLQEQQRRKEEEDQELREEEEAQRLEQEQILNEERQQLKLNNFFTKGVEKRIAPNENFVADKTDELNEFEKEFRPFFIKHQMSLSKYPSPNESDSFLDEVLSTSKSYPLKLNDIFTPSDAVSSANSLGVSNRNSENEVRQLMSAYQDPSVSKPQEILSCLSQIPIKFIFFYQDVRPPYFGSYTKTHSHGSNVLLNPWLEDEDIDYTYDSEAEWVADEEDDGEDLESEDEEVDNSDDIVEDGDNAFVDDEDDDKDSVNASNTHRSSGPLEVIVEGPVWDSKFLPDFNCLSLIEPISSFSASTYLQIDPKEDLWASQDTAPASSGMTIGPTSSLSDDLQVRFPSEDIPKFIEYVRNSHDNKVFLIENLRHMFPYVTKNIISETLGKVAVRKGKSVSDGWIIKENFASLLSS
chain 2: MRAEVLQIRWHYDANDDHTPIYSVDFQKNSLNKFATCGGDSKIRIWQLITSESSTKVEYLSTLSRHTQAVNVVRFNPEGNILATAGDEGTIMLWVPTNTPITTLADDAEELALAKEYWKVKIVCRSMGSEIYDLCWSVDSNFLIAGAMDNSLRLYDAHTGQLLTQKFDHSHYVQGVCWDPLNQYIVSESSDRSICLYEIQEEKKNPKKFQLVLKSRICRIEYNVTKFELISVTKPLNNDESSGISEPIETSNNNESPVSKHEALSSTANIVKDGSLERTEPPNSLNSKISYSLYCNETLVSFFRRPAFSPDGLLLVTPAGRLRPHGQPNFEVPYTAYIYTRGSITKQPVACLNGFKKPVIAVRFSPIHYELNSFSNFSFTSVSFNLPYRMVFAVACQDAVYIYDTQTCKPFYRAVNLHYSNLTDIAWNDDGNVLLMTSIDGFCSVITFEPGELGVKSQHKISLPEKRSASPSSIDDSQDNTAGGPATTTLIPRKVESSKVSKKRIAPTPVYP
chain 3: MNTELDMQNFEHIKFLENQISEDHFRWKKNSKHLYNLLITRTLTWPSLSIQWLSAMESITEKAVLKNRLLLGTHAAEGMPNFLQLADLDLPDFNQTILDPVKHYNEDTGELGGYSMQHSCKFQISQRILHNGDVNRVRHMPQNPNIIATMSSCGNAYIFDRTKYTSMPAEEFLPNISLIGHKKEGFGLSWNRQQNCRLVTAANDSKILEWDLNNFSRDTRCLTPVKDFHYDDSPVNDVEYHPHHTNLYIAVNDNGIAFICDNRLQQTCSKTVKASNPLFSVRHNPSIATLFALGSEQDLQLWDLRNLNKSVFNTSEDLSDNRLKVPSRLTLGGTSLSWSWRHSGRIVSACQEYCYVWNFNKANPLEFVHAGHKGTVNEVDFDPFEAQCIASVADDNELHIWKPNVIVN
With B2, the binding result in data set [2] was “binds”.

B3: Pcf1_KER-PIP (56-185) (domain or fragment, S. pombe, UniProt Q1MTN9 56-185, looked up)
chain: KLSYEGNRKKRIYNGSAEAGKEKKLQKQRAQEERIRQKEAERLKREKERQQREQEKKLREQEKIAAKKMKELEKLEKERIRLQEQQRRKEERDQKLREKEEAQRLRQEQILNKERQQLKLNNFFTKGVEK
As a reminder, the Kd is a measure of binding affinity in units of concentration. The term stoichiometry N denotes the number of molecules, sites or subunits per partner or assembly. As for B3, in data set [3], the Kd is 0.7 ± 0.2 µM, the dH amounted to 2.9 ± 0.6 kCal.M^–1 and the “stoichiometry N” value worked out at 0.64 ± 0.04.

B4: Pcf1_KER*-PIP (56-185, R147E-K150E-K154E-R161E-K168E) (domain or fragment, S. pombe, UniProt Q1MTN9 56-185, looked up)
chain: KLSYEGNRKKRIYNGSAEAGKEKKLQKQRAQEERIRQKEAERLKREKERQQREQEKKLREQEKIAAKKMKELEKLEKERIRLQEQQRRKEEEDQELREEEEAQRLEQEQILNEERQQLKLNNFFTKGVEK
For B4, in data set [3], the equilibrium dissociation constant (Kd) was 7.1 ± 1.5 µM, the dH came to 1 ± 0.5 kCal.M^–1 and the “stoichiometry N” value was determined as 0.7 ± 0.2.

B5: Pcf2 (medium subunit of SpCAF-1) (natural protein, S. pombe, UniProt O13985 1-512, looked up)
chain: MRAEVLQIRWHYDANDDHTPIYSVDFQKNSLNKFATCGGDSKIRIWQLITSESSTKVEYLSTLSRHTQAVNVVRFNPEGNILATAGDEGTIMLWVPTNTPITTLADDAEELALAKEYWKVKIVCRSMGSEIYDLCWSVDSNFLIAGAMDNSLRLYDAHTGQLLTQKFDHSHYVQGVCWDPLNQYIVSESSDRSICLYEIQEEKKNPKKFQLVLKSRICRIEYNVTKFELISVTKPLNNDESSGISEPIETSNNNESPVSKHEALSSTANIVKDGSLERTEPPNSLNSKISYSLYCNETLVSFFRRPAFSPDGLLLVTPAGRLRPHGQPNFEVPYTAYIYTRGSITKQPVACLNGFKKPVIAVRFSPIHYELNSFSNFSFTSVSFNLPYRMVFAVACQDAVYIYDTQTCKPFYRAVNLHYSNLTDIAWNDDGNVLLMTSIDGFCSVITFEPGELGVKSQHKISLPEKRSASPSSIDDSQDNTAGGPATTTLIPRKVESSKVSKKRIAPTPVYP
As to B5, the “stoichiometry N” value in data set [4] stood at 1.

B6: Pcf1_ED (325-396) (domain or fragment, S. pombe, UniProt Q1MTN9 325-396, looked up)
chain: SNVLLNPWLEDEDIDYTYDSEAEWVADEEDDGEDLESEDEEVDNSDDIVEDGDNAFVDDEDDDKDSVNASNT
For B6, in data set [5], the binding result is “binds”.
Turning to B7, in data set [6], the binding result is given as “binds”.

B8: PCNA (endogenous, S. pombe) (natural protein, S. pombe (endogenous in S. pombe), UniProt Q03392 1-260, looked up)
chain: MLEARFQQAALLKKLLDAIKELVTDANFDCNDNGISLQAMDSSHVALVSMLIKSDGFEPYRCDRNIALGINLNALSKVLRCAQNEDLVTLKAEDTPEVLNLVFESEKNDRISDYDVKLMDIDQEHLGIPDIEYDATITMPAAEFQRITRDLLTLSDSVTINASKEGVRFSCKGDIGNGSTTLKQHTDLSDQDQSIEISLTQAVTLTFSLKYLAQFTKATPLATRVTLSMSNDVPLLVEYKMESGFLRFYLAPKIGEEDEE
Regarding B8, the “fold change of bound PCNA against WT Pcf1” value in data set [7] was 8 fold of WT Pcf1.

B9: Pcf3 (small subunit of SpCAF-1) (natural protein, S. pombe, UniProt Q9Y825 1-408, looked up)
chain: MNTELDMQNFEHIKFLENQISEDHFRWKKNSKHLYNLLITRTLTWPSLSIQWLSAMESITEKAVLKNRLLLGTHAAEGMPNFLQLADLDLPDFNQTILDPVKHYNEDTGELGGYSMQHSCKFQISQRILHNGDVNRVRHMPQNPNIIATMSSCGNAYIFDRTKYTSMPAEEFLPNISLIGHKKEGFGLSWNRQQNCRLVTAANDSKILEWDLNNFSRDTRCLTPVKDFHYDDSPVNDVEYHPHHTNLYIAVNDNGIAFICDNRLQQTCSKTVKASNPLFSVRHNPSIATLFALGSEQDLQLWDLRNLNKSVFNTSEDLSDNRLKVPSRLTLGGTSLSWSWRHSGRIVSACQEYCYVWNFNKANPLEFVHAGHKGTVNEVDFDPFEAQCIASVADDNELHIWKPNVIVN
In the case of B9, in data set [4], the “stoichiometry N” value was determined as 1.
